Where a chain is given by its changes, count along the chain named.
T1: mouse LAG-3 overexpressed on HEK293E cells (mouse, UniProt Q61790 24-521)
T1 construct: whole, on cells; also called HEK293E-mLAG3; mLAG3 (Mouse)
T1 sequence (looked up): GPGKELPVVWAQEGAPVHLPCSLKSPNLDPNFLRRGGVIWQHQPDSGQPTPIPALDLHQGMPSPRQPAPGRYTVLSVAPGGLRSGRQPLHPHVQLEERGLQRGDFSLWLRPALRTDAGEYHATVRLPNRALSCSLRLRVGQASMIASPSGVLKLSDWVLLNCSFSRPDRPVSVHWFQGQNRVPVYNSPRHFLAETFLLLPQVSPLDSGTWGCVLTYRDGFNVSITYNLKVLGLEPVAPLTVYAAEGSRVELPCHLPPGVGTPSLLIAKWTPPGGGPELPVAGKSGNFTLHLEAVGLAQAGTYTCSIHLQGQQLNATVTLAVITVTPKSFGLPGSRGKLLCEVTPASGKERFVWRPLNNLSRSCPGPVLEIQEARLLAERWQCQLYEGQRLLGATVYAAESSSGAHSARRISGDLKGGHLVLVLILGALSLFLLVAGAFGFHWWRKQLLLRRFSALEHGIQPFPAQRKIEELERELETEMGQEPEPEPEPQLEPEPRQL

T2: human LAG-3 overexpressed on cells (human, UniProt P18627 23-525)
T2 construct: whole, on cells; also called HEK293E-hLAG3; hLAG3 (Human)
T2 sequence (looked up): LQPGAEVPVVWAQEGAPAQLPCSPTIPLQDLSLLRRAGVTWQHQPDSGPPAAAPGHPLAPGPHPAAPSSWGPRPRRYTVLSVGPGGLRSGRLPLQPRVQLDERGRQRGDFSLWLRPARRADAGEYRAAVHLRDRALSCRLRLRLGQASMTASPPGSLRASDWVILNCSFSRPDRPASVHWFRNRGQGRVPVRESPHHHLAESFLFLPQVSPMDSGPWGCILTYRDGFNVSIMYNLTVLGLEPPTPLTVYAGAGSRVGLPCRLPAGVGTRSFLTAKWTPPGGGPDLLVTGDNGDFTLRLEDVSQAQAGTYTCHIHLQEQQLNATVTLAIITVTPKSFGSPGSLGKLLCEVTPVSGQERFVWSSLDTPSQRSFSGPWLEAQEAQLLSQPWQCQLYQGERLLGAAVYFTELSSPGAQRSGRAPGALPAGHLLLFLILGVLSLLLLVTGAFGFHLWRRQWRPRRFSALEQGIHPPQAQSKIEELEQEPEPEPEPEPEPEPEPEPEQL

T3: recombinant human LAG-3-his (#16498-H08H, Sino Biological Inc.) (human, UniProt P18627 23-450)
T3 construct: Bought; also called LAG-3-His (WT); not shown: His tag at the carboxy terminal
T3 sequence (looked up): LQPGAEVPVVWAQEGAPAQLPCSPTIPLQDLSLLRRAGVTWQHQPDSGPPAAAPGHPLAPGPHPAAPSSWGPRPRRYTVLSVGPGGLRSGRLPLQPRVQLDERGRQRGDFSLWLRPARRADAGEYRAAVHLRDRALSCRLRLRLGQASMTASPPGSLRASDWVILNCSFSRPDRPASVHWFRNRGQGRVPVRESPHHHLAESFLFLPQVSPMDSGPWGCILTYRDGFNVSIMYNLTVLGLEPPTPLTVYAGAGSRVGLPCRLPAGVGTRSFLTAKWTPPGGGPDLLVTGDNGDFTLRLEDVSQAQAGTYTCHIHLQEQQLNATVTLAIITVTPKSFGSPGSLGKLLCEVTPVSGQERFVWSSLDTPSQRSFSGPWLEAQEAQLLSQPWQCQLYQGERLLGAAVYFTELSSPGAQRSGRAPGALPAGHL

B1: LAG3-1E09_CDR_1D04 (antibody, V domains shown)
VH: EVQLVESGGDLVKPGGSLRLSCAASGFSFSDHYMNWIRQAPGKGLEWVAYIDTSATYIYYADSVKGRFTISRDNAKNSLYLQMNSLRAEDTAVYYCARDNWGSLDYWGQGTLVTVSS
VL: DIQMTQSPSSLSASVGDRVTITCQASQDISNYLNWYQQKPGKAPNLLIYDASNLETGVPSRFSGSGSGTDFTLTISSLQPEDFATYYCQQSYITPYTFGQGTKLDIK
notes: Tested as full IgG
B2: LAG3-1E09_AM_2H06 (antibody, V domains shown)
VH: B1 VH with S28T, I37V, S54I
VL: B1 VL with K39T, N45K, S91G, I93G, F98Y, D105E
notes: Tested as full IgG
B3: LAG3-1E09_CDR_1E03 (antibody, V domains shown)
VH: B1 VH with S28T, S30N, S54T
VL: B1 VL with P8L, R18S, Q37R, N45E, A51T, I93S, T94I, L104V, D105E
notes: Tested as full IgG
B4: LAG3-1E09_FR_1A10 (antibody, V domains shown)
VH: B1 VH with D10G
VL: DIQMTQSPSSLSASVGDRVTITCQANQDISNYLNWYQQKPGKAPKLLIYDASNLETGVPSRFSGGGSGTDFTLTINNLQPEDFATYYCHHSYNTPITFGQGTRLEIK
notes: Tested as full IgG
B5: LAG3-1E09_LS_1E06 (antibody, V domains shown)
VH: B1 VH
VL: B1 VL with N31H, Q37R, N45K, D70L, I93S, D105E
notes: Tested as full IgG
B6: LAG3-1E09_LS_1G11 (antibody, V domains shown)
VH: B1 VH with K13Q, S28N, I37V, S54T
VL: B1 VL with S30D, N31K, N45K, I93S, Y96N
notes: Tested as full IgG
B7: LAG3-1E09_AM_2E09 (antibody, V domains shown)
VH: B1 VH with I37V, S54N
VL: DIQMTQSSSSLSASVGDRVTITCQASQDITDFLNWYQQKPGKAPKLLIYDASNLETGIPSRFSGSGSGREFTLTINSLQPEDVASYYCQQSYTTPLTFGGGTKVDIK
notes: Tested as full IgG
B8: LAG3-1E09_FR_1F03 (antibody, V domains shown)
VH: B1 VH with D10G
VL: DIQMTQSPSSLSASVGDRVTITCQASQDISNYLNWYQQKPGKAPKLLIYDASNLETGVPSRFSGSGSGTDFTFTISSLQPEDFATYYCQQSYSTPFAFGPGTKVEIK
notes: Tested as full IgG
B9: LAG3-1E09_AM_2G11 (antibody, V domains shown)
VH: B1 VH with S30T, I37V
VL: DIQMTQSPSSLSASVGDRVTITCRASQSISYYLNWYQQRPGKAPKLLIYDASNLETGVPSRFSGSGTGTEFTLTISSLQPEDFATYYCQQSYSTPFAFGPGTKVEIK
notes: Tested as full IgG
B10: LAG3-1E09_FR_1G07 (antibody, V domains shown)
VH: B1 VH with D10G, I37V
VL: DIQMTQSPSSLSASVGDRVTITCRASQGISTYLNWYQQKPGKAPKLLIYDASNLETGVPSRFSGSGSGTDFTLTISGLQPDDFALYYCQQSYTTPYSFGPGTKVEIK
notes: Tested as full IgG
B11: LAG3-1E09_FR_1E10 (antibody, V domains shown)
VH: B1 VH with D10G, I37V
VL: DIQMTQSPSSLSASVGDRVIITCQASQDITNYLNWYQQKPGKAPKLLIYDASNLETGVPSRFTGSGSGTDFTFTISSLQPEDIATYHCQQSYSTPPYTFGQGTKLEIK
notes: Tested as full IgG
B12: LAG3-1E09_FR_1E09 (antibody, V domains shown)
VH: B1 VH with D10G
VL: B1 VL with T72A, Y92D, I93S, Y96I, K103R
notes: Tested as full IgG
B13: LAG3-1E09_LS_1A10 (antibody, V domains shown)
VH: B1 VH
VL: not shown
notes: Tested as full IgG
B14: LAG3-1E09_FR_1A06 (antibody, V domains shown)
VH: B1 VH with D10G, I37V
VL: DIQMTQSPGTLSMSPGEKATLSCRASQTVTTNLAWYQQKSGQAPRLLIYDASTRATGVPDRFSGSGSGTDFTLTISRLEPEDFAVYYCQQYGSSPYTFGQGTKLDIK
notes: Tested as full IgG
B15: LAG3-1E09_AM_1E09 (antibody, V domains shown)
VH: B1 VH
VL: DIQMTQSPATLSVSPGERATLSCRASQSVMNNLAWYQQKPGQAPRLLIYDASNRATGIPARFSGSGSGTDFTLTISRLEPEDFAVYYCEQYVRSPYTFGQGTKLDIK
notes: Tested as full IgG
B16: LAG3-1E09_AM_1F09 (antibody, V domains shown)
VH: B1 VH with S28N
VL: B1 VL with S30R, N34G, N53T, T74A, I93S, D105E
notes: Tested as full IgG
B17: LAG3-1E09_AM_1H07 (antibody, V domains shown)
VH: B1 VH with K13Q, S30N, I37V
VL: B9 VL with R24Q, S28D, Y31N, R39K, D50E, N53S, T56S, T67S, S76N
notes: Tested as full IgG
B18: LAG3-1E09_AM_1B03 (antibody, V domains shown)
VH: B1 VH with K13Q, S30N
VL: DIQMTQSPSSLSASVGDRVTMTCQASQDVSNYLNWYQQKPGKAPKLLIYDASNLEIGVPSRFSGSGSGTDFTFTISSLQPEDTATYYCQQYDHLPPYTFGQGTKLEIK
notes: Tested as full IgG
B19: LAG3-1E09_LS_1H04 (antibody, V domains shown)
VH: B1 VH
VL: DIQMTQSPSSLSASAGDRVTITCQASQDIRNSLSWYQQKPGKAPKLLIYDASNLETGVPSRFSGSGSGTYFTFTISSLQPEDFATYYCQQYDNVPVTFGGGTKLEIK
notes: Tested as full IgG

These binders were tested against T1, mouse LAG-3 overexpressed on HEK293E … (assay: flow cytometry, HEK293E cells overexpressing LAG-3, antibody 2 µg/ml).
Protocol: (§1) After that, the cells were washed three times with PBS containing 2% FBS and then subjected to the reaction for 30 minutes at 4° C. with anti-human IgG antibody (#FI-3000, Vectorlabs) linked with FITC fluorescent. The cells were washed by the same washing process as above followed by suspension in 0.2 ml PBS containing 2% FBS. The cells were then analyzed by FACSCanto II flow cytometer.
B1: binds. B2: binds. B3: binds. B4: binds. B5: binds. B6: binds. B7: binds. B8: binds. B9: binds. B10: binds. B11: binds.

These binders were tested against T2, human LAG-3 overexpressed on cells in the same assay as above.
Protocol: as §1
B12: binds. B13: binds. B11: binds. B14: binds. B15: binds.

Each binder was assayed against T2, human LAG-3 overexpressed on cells (assay: cell-based or functional assay).
B1 was tested, and the “EC50 (µg/ml), LAG3/MHC class II Blockade bioassay” value was 0.655 µg/mL. With B16 the “EC50 (µg/ml), LAG3/MHC class II Blockade bioassay” value was 0.488 µg/mL. With B2 the “EC50 (µg/ml), LAG3/MHC class II Blockade bioassay” value was 0.606 µg/mL. For B3, the “EC50 (µg/ml), LAG3/MHC class II Blockade bioassay” value was 1.06 µg/mL. B4 was tested, and the “EC50 (µg/ml), LAG3/MHC class II Blockade bioassay” value was 0.811 µg/mL. With B5 the “EC50 (µg/ml), LAG3/MHC class II Blockade bioassay” value was 0.151 µg/mL. With B6 the “EC50 (µg/ml), LAG3/MHC class II Blockade bioassay” value was 1.51 µg/mL. In the case of B17, the “EC50 (µg/ml), LAG3/MHC class II Blockade bioassay” value is reported as 0.448 µg/mL. With B7 the “EC50 (µg/ml), LAG3/MHC class II Blockade bioassay” value was 0.482 µg/mL. For B18, the “EC50 (µg/ml), LAG3/MHC class II Blockade bioassay” value was 1.82 µg/mL. B8 was tested, and the “EC50 (µg/ml), LAG3/MHC class II Blockade bioassay” value was 0.485 µg/mL. For B9, the “EC50 (µg/ml), LAG3/MHC class II Blockade bioassay” value was 0.246 µg/mL. For B10, the “EC50 (µg/ml), LAG3/MHC class II Blockade bioassay” value was 0.242 µg/mL. In the case of B19, the “EC50 (µg/ml), LAG3/MHC class II Blockade bioassay” value is reported as 0.284 µg/mL.

What follows are binders tested against T3, recombinant human LAG-3-his … (assay: scFv phage ELISA on coated antigen, A490).
B12: binds. B11: binds.

The binders below were run against T1, mouse LAG-3 overexpressed on HEK293E … (assay: flow cytometry, HEK293E cells overexpressing mouse LAG-3).
Protocol: as §1
B16: no binding (tested: 2 µg/ml). B12: no binding (tested: 2 µg/ml). B13: no binding (tested: 2 µg/ml). B17: no binding (tested: 2 µg/ml). B18: no binding (tested: 2 µg/ml). B19: no binding (tested: 2 µg/ml). B14: no binding (tested: 2 µg/ml). B15: no binding (tested: 2 µg/ml).

From patent publication US20210238283A1 (Y BIOLOGICS, published 2021)
